We go through 50 sequences from the supplement of paper PMC10724198.

The data set has as its system Saccharomyces cerevisiae. Description: protein stability index of tFT-peptide fusion (C-terminal peptide) (PSI (0-1 scale)); higher = more stable (slower turnover). Particulars: temperature: 30 C. The method, then:
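MPS profiling in S. cerevisiae of the yeast C-terminome library: the last 12 aa of each annotated ORF are fused to the C-terminus of a sfGFP-mCherry timer, after a GGGS linker. Cells are FACS-sorted into 8 mCherry/sfGFP bins and deep-sequenced. PSI runs from 0 (unstable) to 1 (stable); wild type and das1Δ backgrounds, two technical replicates each.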

Setting [1] is: genetic background: das1 deletion.

± gives the standard deviation of the averaged measurements.

For AMFNDIWKNANE [UPS3 C-terminal 12 aa], the protein stability index is, setting by setting: under setting [1], 0.7263 ± 0.0062; (genetic background: wild type) 0.711 ± 0.015.

For the sequence ANCNTADCLEDH [COT1 C-terminal 12 aa], the protein stability index was 0.6866 ± 0.0051 under setting [1] and 0.708 ± 0.012 (genetic background: wild type).

As to ANLRAYFGPGFT [BUD6 C-terminal 12 aa], the protein stability index runs as follows: under setting [1], 0.719 ± 0.017; (genetic background: wild type) 0.691 ± 0.0094.

As for AQLLAYLMHKSN [LPL1 C-terminal 12 aa], the protein stability index runs as follows: under setting [1], 0.714 ± 0.013; (genetic background: wild type) 0.252 ± 0.013.

Take ASFENETVKANV [RFC3 C-terminal 12 aa]: the protein stability index was 0.706 ± 0.019 under setting [1] and 0.704 ± 0.0078 (genetic background: wild type).

With ASKESSKEDVAN [MUM2 C-terminal 12 aa], the protein stability index under setting [1] stood at 0.69 ± 0.0096 and the protein stability index (genetic background: wild type) turned out to be 0.661 ± 0.032.

For the sequence ASQAKNSIEDDV [GTR2 C-terminal 12 aa], the protein stability index under setting [1] was 0.721 ± 0.021 and the protein stability index (genetic background: wild type) was found to be 0.689 ± 0.031.

In the case of ASREREKRRQSE [VAN1 C-terminal 12 aa], the protein stability index was 0.724 ± 0.0075 under setting [1] and 0.76362 ± 0.00071 (genetic background: wild type).

On to ATAREWTKKYAV [UBC4 C-terminal 12 aa], for which the protein stability index by setting is: under setting [1], 0.702 ± 0.0071; (genetic background: wild type) 0.7122 ± 0.0016.

For the sequence ATCGSSTYFARK [MCO8 C-terminal 12 aa], the protein stability index by setting is: under setting [1], 0.6938 ± 0.0026; (genetic background: wild type) 0.746 ± 0.054.

For the sequence “ATPQKRTGPARG [YER088C-A C-terminal 12 aa]”, the protein stability index turned out to be 0.68 ± 0.018 under setting [1] and 0.66 ± 0.018 (genetic background: wild type).

Regarding ATSILLWYSNYS [CNM1 C-terminal 12 aa], the protein stability index came to 0.739 ± 0.013 under setting [1] and 0.6973 ± 0.00096 (genetic background: wild type).

In the case of AVIGVYGEGQFI [ATG33 C-terminal 12 aa], the protein stability index was 0.6986 ± 0.0067 under setting [1] and 0.693 ± 0.049 (genetic background: wild type).

As to AVNTLLWQEQYS [YDR042C C-terminal 12 aa], the protein stability index is, setting by setting: under setting [1], 0.739 ± 0.017; (genetic background: wild type) 0.751 ± 0.13.

With AWSYLARQVLYY [YGR176W C-terminal 12 aa], the protein stability index was found to be 0.6986 ± 0.0046 under setting [1] and 0.688 ± 0.032 (genetic background: wild type).

As to AYEFDGDKVIVG [RIP1 C-terminal 12 aa], the protein stability index runs as follows: under setting [1], 0.704 ± 0.018; (genetic background: wild type) 0.6846 ± 0.0025.

AYSLQEGSVVAI [SIF2 C-terminal 12 aa] came in with a protein stability index under setting [1] of 0.7139 ± 0.0064 and a protein stability index (genetic background: wild type) of 0.696 ± 0.047.

CDSEMFASSKDE [ERI1 C-terminal 12 aa]: the protein stability index is, setting by setting: under setting [1], 0.698 ± 0.0072; (genetic background: wild type) 0.74 ± 0.053.

With CFPDDIFEYAVE [GLG1 C-terminal 12 aa], the protein stability index under setting [1] came to 0.768 ± 0.015 and the protein stability index (genetic background: wild type) was determined as 0.76 ± 0.0098.

Turning to CGKCHSVYKVNA [RPS31 C-terminal 12 aa], the protein stability index runs as follows: under setting [1], 0.70314 ± 0.00059; (genetic background: wild type) 0.624 ± 0.041.

Regarding CGLDGKIVIYTI [ARC40 C-terminal 12 aa], the protein stability index worked out at 0.6819 ± 0.0035 under setting [1] and 0.6704 ± 0.0027 (genetic background: wild type).

CKSNKKHKQRQG [RTC6 C-terminal 12 aa] displayed a protein stability index under setting [1] of 0.701 ± 0.031 and a protein stability index (genetic background: wild type) of 0.601 ± 0.02.

Consider CKTLNYARPQSN [BNA1 C-terminal 12 aa], for which the protein stability index reads like this: under setting [1], 0.6906 ± 0.0025; (genetic background: wild type) 0.727 ± 0.031.

In turn, CNNVLYIRELPN [SMX3 C-terminal 12 aa] showed a protein stability index under setting [1] of 0.689 ± 0.016 and a protein stability index (genetic background: wild type) of 0.6801 ± 0.0029.

For the sequence CPSVEEIANETE [GCV2 C-terminal 12 aa], the protein stability index reads like this: under setting [1], 0.696 ± 0.013; (genetic background: wild type) 0.653 ± 0.0098.

In the case of “CVAGAHFESLLD [YNL144W-A C-terminal 12 aa]”, the protein stability index is, setting by setting: under setting [1], 0.702 ± 0.0074; (genetic background: wild type) 0.744 ± 0.03.

As to CVVGTLGSDLKS [YPR150W C-terminal 12 aa], the protein stability index is, setting by setting: under setting [1], 0.7093 ± 0.0042; (genetic background: wild type) 0.697 ± 0.014.

As for DAEGQENAASSE [RIM1 C-terminal 12 aa], the protein stability index worked out at 0.67571 ± 0.00047 under setting [1] and 0.67 ± 0.0069 (genetic background: wild type).

Turning to DATSTLSSQPLD [MSP1 C-terminal 12 aa], the protein stability index by setting is: under setting [1], 0.7244 ± 0.0059; (genetic background: wild type) 0.695 ± 0.037.

Consider DCGWVSDAYKNH [LCL2 C-terminal 12 aa], for which the protein stability index is, setting by setting: under setting [1], 0.735 ± 0.019; (genetic background: wild type) 0.724 ± 0.043.

For DDDEEDEIVEVA [HGH1 C-terminal 12 aa], the protein stability index worked out at 0.698 ± 0.033 under setting [1] and 0.6572 ± 0.0019 (genetic background: wild type).

Take DDDGDYFEHDEL [KAR2 C-terminal 12 aa]: the protein stability index is, setting by setting: under setting [1], 0.688 ± 0.017; (genetic background: wild type) 0.6679 ± 0.00099.

For DDGDSDSWDTNW [CEX1 C-terminal 12 aa], the protein stability index runs as follows: under setting [1], 0.701 ± 0.024; (genetic background: wild type) 0.702 ± 0.014.

For DDQDAISNQEKK [EIS1 C-terminal 12 aa], the protein stability index worked out at 0.712 ± 0.057 under setting [1] and 0.701 ± 0.038 (genetic background: wild type).

As to DDRPIYKRFFSS [HXT9 C-terminal 12 aa], the protein stability index runs as follows: under setting [1], 0.7117 ± 0.0052; (genetic background: wild type) 0.654 ± 0.023.

In the case of DEDDGMIIGSLW [AEP2 C-terminal 12 aa], the protein stability index is, setting by setting: under setting [1], 0.7004 ± 0.0057; (genetic background: wild type) 0.708 ± 0.013.

As for DEELHPLSDEGM [DPP1 C-terminal 12 aa], the protein stability index reads like this: under setting [1], 0.691 ± 0.011; (genetic background: wild type) 0.726 ± 0.061.

The sequence DEEREDDNYVPQ [CBC2 C-terminal 12 aa] displayed a protein stability index under setting [1] of 0.689 ± 0.028 and a protein stability index (genetic background: wild type) of 0.671 ± 0.022.

Turning to DEKVKKMVENLQ [TRS23 C-terminal 12 aa], the protein stability index came to 0.7295 ± 0.0065 under setting [1] and 0.738 ± 0.077 (genetic background: wild type).

In the case of “DFLTLVQTNSDT [YPL250W-A C-terminal 12 aa]”, the protein stability index by setting is: under setting [1], 0.712 ± 0.0071; (genetic background: wild type) 0.722 ± 0.038.

For the sequence DFNSKSKKKNDK [MIN6 C-terminal 12 aa], the protein stability index by setting is: under setting [1], 0.697 ± 0.024; (genetic background: wild type) 0.6535 ± 0.0044.

Consider DGPGLNNFGITL [BMT2 C-terminal 12 aa], for which the protein stability index reads like this: under setting [1], 0.6975 ± 0.00032; (genetic background: wild type) 0.699 ± 0.035.

With DIEINDDLNGVL [VPS41 C-terminal 12 aa], the protein stability index is 0.653 ± 0.016 under setting [1] and 0.708 ± 0.053 (genetic background: wild type).

On to DIFEDSSDEEQS [SPL2 C-terminal 12 aa], for which the protein stability index is, setting by setting: under setting [1], 0.7179 ± 0.00076; (genetic background: wild type) 0.727 ± 0.084.

On to DKHEQPQIESPK [CFD1 C-terminal 12 aa], for which the protein stability index under setting [1] worked out at 0.7 ± 0.026 and the protein stability index (genetic background: wild type) came out at 0.684 ± 0.021.

Consider DKKLEEQLRDLV [MTC3 C-terminal 12 aa], for which the protein stability index worked out at 0.6866 ± 0.0029 under setting [1] and 0.689 ± 0.052 (genetic background: wild type).

For the sequence DKSTFGLSPVKI [GRS2 C-terminal 12 aa], the protein stability index stood at 0.691 ± 0.033 under setting [1] and 0.666 ± 0.0084 (genetic background: wild type).

Consider DLDFLGSDIEFE [HFM1 C-terminal 12 aa], for which the protein stability index was 0.718 ± 0.016 under setting [1] and 0.7077 ± 0.002 (genetic background: wild type).

As for DLESLTAKLIQG [HCA4 C-terminal 12 aa], the protein stability index turned out to be 0.7 ± 0.022 under setting [1] and 0.67282 ± 0.00041 (genetic background: wild type).

Take DLIDDKTNRGRR [PRP2 C-terminal 12 aa]: the protein stability index is, setting by setting: under setting [1], 0.696 ± 0.029; (genetic background: wild type) 0.697 ± 0.023.
